# Reference: patent US20100254979A1 (CISTHERA, published 2010)
# T1: rat PAI-1 (rat, UniProt P20961 24-402, n-terminal biotin label in the P-ELISA)
# T1 sequence (looked up): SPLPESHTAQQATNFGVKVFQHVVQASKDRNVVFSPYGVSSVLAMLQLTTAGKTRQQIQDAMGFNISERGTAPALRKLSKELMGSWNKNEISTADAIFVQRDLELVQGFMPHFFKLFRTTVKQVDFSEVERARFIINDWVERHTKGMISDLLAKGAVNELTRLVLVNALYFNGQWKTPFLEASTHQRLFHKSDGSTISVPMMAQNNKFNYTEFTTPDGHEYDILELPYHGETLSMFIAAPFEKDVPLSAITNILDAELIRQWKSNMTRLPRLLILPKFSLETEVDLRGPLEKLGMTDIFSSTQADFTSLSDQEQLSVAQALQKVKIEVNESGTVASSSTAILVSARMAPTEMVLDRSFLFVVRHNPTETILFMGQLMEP
# T2: mouse PAI-1 (mouse, UniProt P22777 23-402, limits assumed, n-terminal biotin label in the P-ELISA)
# T2 construct: also called murine PAI-1
# T2 sequence (looked up): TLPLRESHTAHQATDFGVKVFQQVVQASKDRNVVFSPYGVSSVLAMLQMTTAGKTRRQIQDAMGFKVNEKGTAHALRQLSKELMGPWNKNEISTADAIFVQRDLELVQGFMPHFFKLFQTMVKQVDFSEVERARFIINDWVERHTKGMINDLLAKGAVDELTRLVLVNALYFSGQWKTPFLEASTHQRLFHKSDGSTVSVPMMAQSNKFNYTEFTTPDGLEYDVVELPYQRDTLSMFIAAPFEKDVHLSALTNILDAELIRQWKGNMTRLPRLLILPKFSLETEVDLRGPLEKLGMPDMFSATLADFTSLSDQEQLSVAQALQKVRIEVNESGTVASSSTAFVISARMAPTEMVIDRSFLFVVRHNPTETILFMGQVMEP
# Assays:
# [1] = biological target: PAI-1 (antigen of Example 11, species not stated) (Homo sapiens (Human)) (UniProt P05121); assay: biosensor kinetics, 25 C, global 1:1 fit
# [2] = biological target: PAI-1 (immobilised antigen of the P-ELISA of FIG. 13, species not stated); assay: P-ELISA on immobilised biotinylated PAI-1 (species not stated), A450; antibody without plasma, with or without EDTA
# [3] = biological target: PAI-1 (immobilised antigen of the P-ELISA of FIG. 13, species not stated); assay: P-ELISA on immobilised biotinylated PAI-1 (species not stated), A450; antibody spiked into plasma with EDTA
# [4] = biological target: PAI-1 (antigen of Example 11, species not stated) (Homo sapiens (Human)) (UniProt P05121); assay: biosensor kinetics, mAb captured on anti-human IgG surface at 5 densities, 25 C, global 1:1 fit
# rat PAI-1 = biological target: T1, rat PAI-1; assay: P-ELISA: biotinylated PAI-1 (panel title: Rat PAI-1) on Neutravidin-coated plate, HRP-conjugated secondary antibody, O.D. 450
# Experimental: All reagents are brought to room temperature (18-23° C.) and dilutions are made in Wash Buffer (1× TBS, 0.1% BSA, 0.05% Tween). Briefly, protocol steps are as follows: [0952] Add 100 μL of Neutravidin™ Pierce #31000 (0.5 μg/ml in TBS) to 96-well Immulon-4 plates. [0953] Incubate 1 hour at room temperature (RT). [0954] Wash wells 3 times with 200 μl Wash Buffer. [0955] Add 50 μL of biotinylated biomolecule (0.06 nM) Incubate 1 hour at RT. [0956] Wash plate 3 times in Wash Buffer. [0957] Add 100 μL of 1° Ab Incubate 30 min RT [0958] Wash plate 3 times in Wash Buffer. [0959] Add 50 μL of 2° Ab-HRP (1:10,000) Incubate 30 min RT [0960] Wash plate 4 times in Wash Buffer. [0961] Add 100 μl TMB Reagent (substrate). Incubate at room temperature. [0962] Add 100 μL of 2 M Sulfuric Acid to stop development of the substrate. [0963] Plates were read using a 450 nm filter with a 615-620 nm filter as the reference.
# Binding of CT140 to rat, mouse, rabbit and human PAI-1 was determined by P-ELISA (see FIG. 12). The relative affinity of CT140 is human=rabbit>mouse>rat (FIG. 12A, FIG. 12B, FIG. 12C and FIG. 12D, respectively).
# [5] = biological target: human PAI-1 (plasminogen activator inhibitor-1) (human, UniProt P05121 24-402, n-terminal biotin label in the P-ELISA); assay: cell-based or functional assay
# mouse PAI-1 = biological target: T2, mouse PAI-1; assay: P-ELISA
# Chain of PAI-1 (immobilised antigen of the P-ELISA of FIG. 13, species not stated) (P05121 24-402): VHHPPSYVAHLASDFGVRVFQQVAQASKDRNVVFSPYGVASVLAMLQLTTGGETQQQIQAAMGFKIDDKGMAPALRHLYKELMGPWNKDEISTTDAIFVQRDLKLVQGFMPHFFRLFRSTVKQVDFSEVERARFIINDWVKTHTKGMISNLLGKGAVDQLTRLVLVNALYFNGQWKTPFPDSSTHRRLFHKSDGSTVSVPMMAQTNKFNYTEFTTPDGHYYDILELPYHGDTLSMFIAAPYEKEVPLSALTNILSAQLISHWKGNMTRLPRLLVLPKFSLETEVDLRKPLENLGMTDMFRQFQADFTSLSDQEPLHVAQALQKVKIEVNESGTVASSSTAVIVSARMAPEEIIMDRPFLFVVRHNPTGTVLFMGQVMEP
# Chain of human PAI-1 (plasminogen activator inhibitor-1) (P05121 24-402 limits assumed): as the sequence (P05121 24-402) above
Kd [1],koff [1],kon [1],EC50 (read off the curve) [2],EC50 (read off the curve) [3],Kd [4],koff [4],kon [4],binding result (rat PAI-1),EC50 (read off the curve) [5],fold greater affinity relative to the parent mouse anti-PAI-1 (mouse PAI-1),Binder
8.01 nM,0.00314 s⁻¹,393000 M⁻¹ s⁻¹,0.1 µg/mL,0.4 µg/mL,,,,,,,"murine monoclonal antibody 33B8 (MA-33B8) (antibody, V domains shown) VH: QIQLVQSGPELKKPGKTVTISCKASGYTFTNYGMNWVKQAPGKGLKWMGWINTYTGEPTYTDDFKGRFAFSLDTSASTAYLQISNLKNEDTATYFCAKDVSGFVFDYWGQGTTVTVSS VL: DIVMTQSPSSLAVSVGEKVTMSCKSSQSLLNIIKQKNCLAWYQQKPGQSPKLLIYWASTRESGVPDRFTGSGSGTDFTLTISSVKAEDLAVYYCQQYYSYPYTFGGGTKLEIK"
,,,,,0.015 nM,8e-06 s⁻¹,530000 M⁻¹ s⁻¹,binds,~10 µg/mL,> 10 fold,"CT140 (humanized 33B8 anti-PAI-1 antibody, IgG4 with IgG1 hinge) (antibody, V domains shown, The IgG4 hinge was replaced by that of IgG1; also called hP-1; humanized mAb CT140) VH: QVQLVQSGAEVKKPGASVKVSCKASGYTFTNYGMNWVRQAPGQGLEWMGWINTYTGEPTYTDDFKGRFTMTLDTSISTAYMELSRLRSDDTAVYYCAKDVSGFVFDYWGQGTLVTVSS VL: DIVMTQSPDSLAVSLGERATINCKSSQSLLNIIKQKNCLAWYQQKPGQPPKLLIYWASTRESGVPDRFSGSGSGTDFTLTISSLQAEDVAVYYCQQYYSYPYTFGQGTKLEIKR"
